Reference: paper PMC12422955 (Nature, 2025)

B3: recombinant homomeric GluA4 receptor (C-terminal GFP and Strep tag) (receptor, UniProt P19493 21-902, looked up)
chain: GAFPSSVQIGGLFIRNTDQEYTAFRLAIFLHNTSPNASEAPFNLVPHVDNIETANSFAVTNAFCSQYSRGVFAIFGLYDKRSVHTLTSFCSALHISLITPSFPTEGESQFVLQLRPSLRGALLSLLDHYEWNCFVFLYDTDRGYSILQAIMEKAGQNGWHVSAICVENFNDVSYRQLLEELDRRQEKKFVIDCEIERLQNILEQIVSVGKHVKGYHYIIANLGFKDISLERFIHGGANVTGFQLVDFNTPMVTKLMDRWKKLDQREYPGSETPPKYTSALTYDGVLVMAETFRSLRRQKIDISRRGNAGDCLANPAAPWGQGIDMERTLKQVRIQGLTGNVQFDHYGRRVNYTMDVFELKSTGPRKVGYWNDMDKLVLIQDMPTLGNDTAAIENRTVVVTTIMESPYVMYKKNHEMFEGNDKYEGYCVDLASEIAKHIGIKYKIAIVPDGKYGARDADTKIWNGMVGELVYGKAEIAIAPLTITLVREEVIDFSKPFMSLGISIMIKKPQKSKPGVFSFLDPLAYEIWMCIVFAYIGVSVVLFLVSRFSPYEWHTEEPEDGKEGPSDQPPNEFGIFNSLWFSLGAFMQQGCDISPRSLSGRIVGGVWWFFTLIIISSYTANLAAFLTVERMVSPIESAEDLAKQTEIAYGTLDSGSTKEFFRRSKIAVYEKMWTYMRSAEPSVFTRTTAEGVARVRKSKGKFAFLLESTMNEYTEQRKPCDTMKVGGNLDSKGYGVATPKGSSLGNAVNLAVLKLNEQGLLDKLKNKWWYDKGECGSGGGDSKDKTSALSLSNVAGVFYILVGGLGLAMLVALIEFCYKSRAEAKRMKLTFSEATRNKARLSITGSVGENGRVLTPDCPKAVHTGTAIRQSSGLAVIASDLP
notes: GluA4; also called recombinant GluA4; rGluA4-GFP; source: tsA201 cells (BacMam), digitonin-solubilised, purified (Strep-Tactin, SEC); not shown: GFP, C-terminal, kept

Columns and labels:
Details in all cases: both partners purified
[1] = biological target: dNOE1–mScarlet (dimeric NOE1 construct, residues 205-481 with five GCN4 residues) (rat, UniProt Q62609 205-481); assay: SEC; FSEC of the dNOE1 construct alone, in the absence of a reducing agent
[2] = biological target: B3; assay: BLI; Octet RED384, 30 °C; Fc–dNOE1–mScarlet (20 μg/ml) captured on AMC biosensor; GluA4–GFP 0.78–50 nM; 20 mM Tris pH 8.0, 150 mM NaCl, 0.075% digitonin with 3 mM glutamate or 2 μM ZK and 10 μM (R,R)-2b; 1:1 binding model
[3] = biological target: T1, recombinant full-length NOE1–mScarlet-His (rat, UniProt Q62609 25-485); assay: SEC; FSEC, Superose 6 calibrated with mass markers; 5 nM full-length NOE1–mScarlet with 5–150 nM GluA4, or 1 nM with 1–100 nM CP-AMPARs; mScarlet fluorescence
T1 construct: signal peptide in the construct; full-length rat NOE1, residues 1-485; Tag joined by an SG linker or an SG–HRV 3C site–AAAA motif; source: tsA201 cells (BacMam), secreted, purified (Ni-NTA, SEC); not shown: mScarlet, C-terminal, kept
T1 sequence (Q62609 25-485): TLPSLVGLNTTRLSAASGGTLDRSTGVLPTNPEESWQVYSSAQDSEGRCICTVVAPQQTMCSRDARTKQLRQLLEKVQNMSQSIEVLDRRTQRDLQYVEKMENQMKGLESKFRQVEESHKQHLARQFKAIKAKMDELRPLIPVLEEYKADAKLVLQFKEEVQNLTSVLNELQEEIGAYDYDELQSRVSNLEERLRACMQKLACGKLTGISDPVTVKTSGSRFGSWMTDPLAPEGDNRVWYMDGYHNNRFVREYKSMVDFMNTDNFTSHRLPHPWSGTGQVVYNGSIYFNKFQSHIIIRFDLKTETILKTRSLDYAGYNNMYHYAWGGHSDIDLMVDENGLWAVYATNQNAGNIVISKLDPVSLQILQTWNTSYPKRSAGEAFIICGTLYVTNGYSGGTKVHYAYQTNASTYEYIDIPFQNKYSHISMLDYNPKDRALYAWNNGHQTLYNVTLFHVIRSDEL

B1: dNOE1–mScarlet (dimeric NOE1 construct, residues 205-481 with five GCN4 residues) (domain or fragment)
chain: GLKQEIDELQSRVSNLEERLRACMQKLACGKLTGISDPVTVKTSGSRFGSWMTDPLAPEGDNRVWYMDGYHNNRFVREYKSMVDFMNTDNFTSHRLPHPWSGTGQVVYNGSIYFNKFQSHIIIRFDLKTETILKTRSLDYAGYNNMYHYAWGGHSDIDLMVDENGLWAVYATNQNAGNIVISKLDPVSLQILQTWNTSYPKRSAGEAFIICGTLYVTNGYSGGTKVHYAYQTNASTYEYIDIPFQNKYSHISMLDYNPKDRALYAWNNGHQTLYNVTLFHVIR
modifications: Disulfide-linked dimer (non-reducing), glycosylated. The cystatin SN signal peptide is assumed cleaved after ...AVALA by convention, leaving G plus GCN4 LKQEI. C-terminal GSG-3C-AAAA-mScarlet-His …
For B1, the “stoichiometry N” value [1] was 2.

B2: Fc–dNOE1–mScarlet (Fc fusion)
chain: LKQEIDELQSRVSNLEERLRACMQKLACGKLTGISDPVTVKTSGSRFGSWMTDPLAPEGDNRVWYMDGYHNNRFVREYKSMVDFMNTDNFTSHRLPHPWSGTGQVVYNGSIYFNKFQSHIIIRFDLKTETILKTRSLDYAGYNNMYHYAWGGHSDIDLMVDENGLWAVYATNQNAGNIVISKLDPVSLQILQTWNTSYPKRSAGEAFIICGTLYVTNGYSGGTKVHYAYQTNASTYEYIDIPFQNKYSHISMLDYNPKDRALYAWNNGHQTLYNVTLFHVIR
modifications: Disulfide-linked, glycosylated dimer. Mouse Fc carrier (before the coiled coil) and C-terminal mScarlet-His left out. The position of the five GCN4 residues relative to Fc is not given; they are …
B2 gave a Kd [2] of about 9.4 nM.

In the case of B3, the “stoichiometry N” value [3] is reported as 2 receptors per NOE1 tetramer.
